“Also recorded” adds a separate entry of the source.

Assay [1] relates to FGFR2, FRS2, and ERK phosphorylation in stomach cancer cell line SNU-16. Briefly: FGFR2 signal inhibitory effect on SNU-16 by Western blotting. The class given is cell-based, human. Conditions: FGF7 10 ng/ml, 10 minutes. The procedure: The FGFR2 signal inhibitory effect of the obtained antibody was tested using a stomach cancer cell line SNU-16 endogenously expressing FGFR2. SNU-16 cells (3×10^6) suspended in an RPMI medium containing 0.1% bovine serum albumin were seeded onto a 12-well plate and incubated overnight. The rat FR2-10 antibody was added thereto, and the cells were incubated at 37° C. for 1 hour. Then, 10 ng/ml FGF7 (manufactured by R&D systems, Inc.) was added thereto, and the cells were further incubated for 10 minutes. Subsequently, the cells were lysed with an RIPA buffer (1% NP-40, 0.5% sodium deoxycholate, and 0.1% SDS in PBS) containing Complete Mini (manufactured by Roche Applied Science) and a phosphatase inhibitor (manufactured by Nacalai Tesque Inc.). The lysates were centrifuged to obtain the cell lysis solution, and the protein concentration was determined using BCA protein assay (manufactured by Pierce Biotechnology, Inc.). The lysates were resuspended in a DTT-containing buffer and denatured at 99° C. for 5 minutes. The protein (20 μg/lane) was separated by SDS-PAGE on a 5 to 20% gel. The protein was blotted onto a PVDF membrane (manufactured by Bio-Rad Laboratories, Inc.). The membrane was blocked with TBS-T (2 mM Tris, 50 mM NaCl, and 0.1% Tween-20 (pH 7.4)) containing 5% skimmed milk (MEGMILK SNOW BRAND Co., Ltd.) at room temperature for 1 hour. […]

A further assay deals with T1, human FGFR2 IIIc (Homo sapiens, UniProt P21802).
T1 construct: a human FGFR2 IIIc variant protein (isoform 1: NP_000132); expressed in transfected cells; host or cells: 293α cells (HEK293 stably transfected with integrin αv and β3)
Nature of the assay: Elk1 luciferase reporter gene assay, FGFR2 IIIc-expressing 293α cells, ligand FGF9. Type of assay: cell-based. Conditions: antibody preincubated 1 hour; FGF9 10 ng/ml, 6 hours. As for the experimental part: The Elk1 luciferase reporter gene assay was carried out using each hybridoma culture supernatant selected in Example 1)-5. A cell line 293α, which was HEK293 cells stably transfected with integrin αv and integrin β3 expression vectors, was transiently cotransfected with pcDNA-DEST40-FGFR2 IIIb or pcDNA-DEST40, pFA2-Elk1 (manufactured by Stratagene Corp.), pFR-Luc2CP, and pGL4.74[hRluc/TK] (manufactured by Promega Corp.) according to transfection procedures using Lipofectamine 2000 (manufactured by Invitrogen Corp.), inoculated to a white 96-well cell culture plate (manufactured by Corning Inc.), and cultured overnight at 37° C. under 5% CO2 conditions. On the next day, the culture supernatant was removed, and the hybridoma culture supernatant diluted 5-fold with DMEM containing 5% FBS was added at a concentration of 50 μl/well to the plate. […] The firefly/Renilla ratio was calculated to normalize data on each well.
In order to evaluate the signal-neutralizing effects of the obtained antibodies by the Elk1 luciferase reporter gene assay, 293α cells were cotransfected with pcDNA-DEST40-FGFR2 IIIb or pcDNA-DEST40-FGFR2 IIIc constructed in Example 1)-3-1, pFA2-Elk1 (manufactured by Stratagene Corp.), pFR-Luc2CP, and pGL4.74[hRluc/TK] […] The firefly/Renilla ratio was calculated to normalize data on each well. […]
In general terms: Reporter assays use an easily measured gene product as a stand-in for the process of interest.

T1 sequence (P21802 22-821): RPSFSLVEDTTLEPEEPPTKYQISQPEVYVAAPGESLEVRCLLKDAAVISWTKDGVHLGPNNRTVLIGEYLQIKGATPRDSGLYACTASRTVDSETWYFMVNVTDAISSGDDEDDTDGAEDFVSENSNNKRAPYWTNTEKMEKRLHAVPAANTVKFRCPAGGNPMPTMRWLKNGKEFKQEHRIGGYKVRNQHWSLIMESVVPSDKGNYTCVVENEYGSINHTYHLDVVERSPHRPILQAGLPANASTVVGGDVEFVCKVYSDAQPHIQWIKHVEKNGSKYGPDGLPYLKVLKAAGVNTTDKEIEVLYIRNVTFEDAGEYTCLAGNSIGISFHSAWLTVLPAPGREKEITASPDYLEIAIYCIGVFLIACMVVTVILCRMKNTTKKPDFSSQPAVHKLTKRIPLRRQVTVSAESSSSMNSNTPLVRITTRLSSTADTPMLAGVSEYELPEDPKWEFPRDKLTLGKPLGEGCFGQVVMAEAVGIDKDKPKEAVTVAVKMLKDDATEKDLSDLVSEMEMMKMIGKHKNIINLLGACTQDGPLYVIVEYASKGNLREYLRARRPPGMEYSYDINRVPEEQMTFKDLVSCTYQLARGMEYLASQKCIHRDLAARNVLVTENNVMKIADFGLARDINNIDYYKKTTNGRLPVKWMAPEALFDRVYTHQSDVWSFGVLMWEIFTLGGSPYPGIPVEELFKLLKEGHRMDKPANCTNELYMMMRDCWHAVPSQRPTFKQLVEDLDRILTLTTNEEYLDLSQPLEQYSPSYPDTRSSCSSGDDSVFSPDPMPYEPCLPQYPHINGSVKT

B1: FR2-10: anti-human FGFR2 rat monoclonal antibody obtained by the method described in Example 1; VH SEQ ID NO: 12, VL SEQ ID NO: 21 (antibody, listed as Rattus norvegicus, V domains shown)
VH: EVQLVESGGGLVQPGRSLKLSCVASGFRFNDFWMTWIRQAPGKGLEWVASITYTGDNTYYAGSVKGRITISRDNAKSTLYLQMNSLRSEDTATYYCTRDDYGGYSPYYMDAWGQGTSVTVSS
VL: DIQMTQSPSSLSAFLGDRVTITCRASQDIGNYLRWFQQKPGKSPRLMIYGATNLANGVPSRFSGSRSGSDYSLTINNLESEDMAIYYCLKHNEYPFTFGSGTKLEIKRA
For B1, the “phosphorylation of FGFR2, FRS2, and ERK induced by FGF7” value in assay [1] is “inhibited FGFR2, FRS2, and ERK phosphorylation; also recorded: inhibited the increase in the phosphorylation of these molecules in a concentration dependent manner”.

B2: FR2-13: anti-human FGFR2 rat monoclonal antibody obtained by the method described in Example 1; VH SEQ ID NO: 14, VL SEQ ID NO: 24 (antibody, listed as Rattus norvegicus, V domains shown)
VH: QVKLLQSGAELVKPGASVKLSCKTSGFTFSTSYMSWLKQVPGPSIEWIGWIYAGDGGTKYNQKFKGKATLTVDKSSSTAYMDLSSLTSEDAAVYFCATDGYGDWFAYWGQGTLVTVSS
VL: DIQMTQSPASLSASLGETVTIECRASEDIYSNLAWYQQKPGNSPQLLIYDANILADGVPSRFSGSGSGTQYSLKINSLQSEDVASYFCQQYNNYPPFTFGVGTKLELKRA
As to B2, in the assay with human FGFR2 IIIc, the “ligand FGF9 dependent reporter activation in the FGFR2 IIIc-expressing cells” value is reported as “inhibited”.

B3: FR2-14: anti-human FGFR2 rat monoclonal antibody obtained by the method described in Example 1; VH SEQ ID NO: 16, VL SEQ ID NO: 26 (antibody, listed as Rattus norvegicus, V domains shown)
VH: QVKLLQSGAELVKPGASVKLSCKTSGFTFSTSYMSWLKQVPGPSTEWIGWIYAGDGGTKYNQKFKGKATLTVDKFSSTAYMDLSSLTSEDAAVYFCATDGYGDWFTYWGQGTLVTVSS
VL: DIQMTQSPASLSASLGETVTIECRASEDIYSNLAWYQQKPGNSPQLLIYDANILADGVPSRFSGSGSGTQYSLKINSLQSEDVASYFCQQYNNYPPFTFGAGTKLELKRA
Consider B3, for which the “ligand FGF9 dependent reporter activation in the FGFR2 IIIc-expressing cells” value with human FGFR2 IIIc was “inhibited”.

(Values after patent publication US9931401B2, “Combination comprising anti-fibroblast growth factor receptor 2 (FGFR2) antibody and a tyrosine kinase inhibitor” (Daiichi Sankyo Company, Limited, priority 2013, dated 2018).)
